Assay results: paper PMC10196804 (The Journal of Biological Chemistry, 2023)

T1: His-HERC2 (amino acids 2540–2700) (human, UniProt O95714 2540-2700)
T1 construct: source: E. coli BL21-CodonPlus (DE3)-RIPL, purified (nickel–nitrilotriacetic acid beads, PD-10 desalting)
T1 sequence (looked up): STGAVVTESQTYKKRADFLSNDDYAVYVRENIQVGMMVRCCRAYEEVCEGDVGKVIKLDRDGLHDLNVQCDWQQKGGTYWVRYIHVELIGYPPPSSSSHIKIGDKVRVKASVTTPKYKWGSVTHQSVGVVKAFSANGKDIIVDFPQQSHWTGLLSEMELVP


Target: T1, His-HERC2 (amino acids 2540–2700)
Assay: pull-down; GST-tagged proteins (2 μg) and His-HERC2 (amino acids 2540–2700) (2.8 μg) in 20 mM Tris–HCl pH 7.5, 150 mM NaCl, 0.1% Triton X-100, 1 mM DTT; Glutathione Sepharose beads, 1 h at 4 °C; gel stained with CBB
Settings: both partners purified

Row | binding result | Binder
1 | binds | GST-NCOA4 (amino acids 383–522) C418S (domain or fragment, human, UniProt Q13772 383-522, looked up, C418S; Absorption at 330 and 420 nm not attenuated (Fe–S cluster kept); source: E. coli BL21-CodonPlus (DE3)-RIPL, purified (Glutathione Sepharose, PD-10 desalting)) SMVTEDWLVQNHQDPCKVEEVCRANEPCTSFAECVSDENCEKEALYKWLLKKEGKDKNGMPVEPKPEPEKHKDSLNMWLCPRKEVIEQTKAPKAMTPSRIADSFQVIKNSPLSEWLIRPPYKEGSPKEVPGTEDRAGKQK
2 | binds | GST-NCOA4 (amino acids 383–522) WT (domain or fragment, human, UniProt Q13772 383-522, looked up, Vector pGEX6p-1; Bacteria were grown with Cys and FAC; the UV–visible spectrum resembles that of 2Fe–2S cluster proteins; also called glutathione S-transferase (GST)-fused NCOA4 (amino acids 383–522); source: E. coli BL21-CodonPlus (DE3)-RIPL, purified (Glutathione Sepharose, PD-10 desalting)) SMVTEDWLVQNHQDPCKVEEVCRANEPCTSFAECVCDENCEKEALYKWLLKKEGKDKNGMPVEPKPEPEKHKDSLNMWLCPRKEVIEQTKAPKAMTPSRIADSFQVIKNSPLSEWLIRPPYKEGSPKEVPGTEDRAGKQK
